A word on the IC50: it is the concentration at which inhibition is half-maximal. The low end stands for higher potency, the high end for lower potency.

The assay has as its target purified HLA-A2.1 molecules (human).

As for “HBV Pol 551-A (native HBV pol 551-559) peptide […] (peptide; other documents disagree on this pair)”, the IC50 stood at 0.2 µM. Regarding “HBV Core 18 (HBV core 18-27) peptide […] (peptide; other documents disagree on this pair)”, the IC50 was 0.003 µM.

The record behind these values is patent US20030220285A1.
